Experiment [1] concerns the target T1, FLAG tag antigen.
T1 chain: DYKDDDDK
The experiment can be described thus: SPR bivalent.

The target in experiment [2] is T2, FLAG-BAP (FLAG tag fused to bacterial alkaline phosphatase). The experiment can be described thus: SPR.
Experiment [3] has as its target T2, FLAG-BAP. The experiment can be described thus: SPR. This is another data set of the same source.
Experiment [4] deals with T1, FLAG tag antigen. The experiment is described as follows: SPR.

“And” between values parts separate entries of the source, which are not always exact repeats. Identical values can stand only once. Like-named read-outs stand apart in the source and are kept apart here.

B1: V4 IgG (Anti-FLAG-M2-V4) (antibody, V domains shown)
VH: QVQLVQSGAEVKKPGASVKVSCKASGYSFTTYTIHWVRQAPGQGLEWIGYINPSSGYAAYNQKFQGRVTLTADKSTSTAYMELSSLRSEDTAVYYCAREKFYGYDYWGQGTTVTVSS
VL: DVVMTQSPDSLAVSLGERATINCKSSQSIVHRNGNTYLEWYQQKPGQPPKLLIYKVSNRFSGVPDRFSGSGSGTDFTLTISSLQAEDVAVYYCFQGSHVPYTFGGGTKLEIK
Turning to B1, the Kd with FLAG tag antigen [1] was 0.91 nM; with FLAG-BAP [2], 34.3 nM and 20.7 nM; with FLAG-BAP [3] it was 34.3 nM and 20.7 nM.

B2: V7 IgG (Anti-FLAG-M2-V7) (antibody, V domains shown)
VH: QVQLVQSGAEVKKPGASVKVSCKASGYSFTTYTMHWVRQAPGQGLEWMGYINPSSGYAAYNQKFQGRVTMTADKSTSTAYMELSSLRSEDTAVYYCAREKFYGYDYWGQGTTVTVSS
VL: DVVMTQSPDSLAVSLGERATINCKSSQSIVHRNGNTYLEWYQLKPGQPPKLLIYKVSNRFSGVPDRFSGSGSGTDFTLTISSLQAEDVAVYYCFQGSHVPYTFGGGTKLEIK
Consider B2, for which the Kd with FLAG tag antigen [1] is 1.3 nM; in the experiment with FLAG-BAP [2], 27.7 nM and 23.2 nM; in the experiment with FLAG-BAP [3] it was 23.2 nM and 27.7 nM.

B3: Parental anti-FLAG (chimeric) (antibody, V domains shown)
VH: QVQLQQSAGELARPGASVKMSCKASGYSFTTYTIHWVKQRPGQGLEWIGYINPSSGYAAYNQNFKDETTLTADKSSSTAYMQLSSLTSEDSAVYYCAREKFYGYDYWGQGTTLTVSS
VL: DVLMTQLPLSLPVSLGDQASISCRSSQSIVHRNGNTYLEWYLLKPGQSPKLLIYKVSNRFSGVPDRFSGSGSGTDFTLKISRVEAEDLGVYYCFQGSHVPYTFGGGTKLEIK
Take B3: the Kd with FLAG tag antigen [1] was determined as 0.96 nM.

B4: V7 scFv (anti-FLAG) (antibody)
chain: DVVMTQSPDSLAVSLGERATINCKSSQSIVHRNGNTYLEWYQLKPGQPPKLLIYKVSNRFSGVPDRFSGSGSGTDFTLTISSLQAEDVAVYYCFQGSHVPYTFGGGTKLEIKGGGGSGGGGSGGGGSQVQLVQSGAEVKKPGASVKVSCKASGYSFTTYTMHWVRQAPGQGLEWMGYINPSSGYAAYNQKFQGRVTMTADKSTSTAYMELSSLRSEDTAVYYCAREKFYGYDYWGQGTTVTVSS
In the case of B4, the Kd in the experiment with FLAG tag antigen [4] turned out to be 15 nM.

B5: V4 scFv (anti-FLAG) (antibody)
chain: DVVMTQSPDSLAVSLGERATINCKSSQSIVHRNGNTYLEWYQQKPGQPPKLLIYKVSNRFSGVPDRFSGSGSGTDFTLTISSLQAEDVAVYYCFQGSHVPYTFGGGTKLEIKGGGGSGGGGSGGGGSQVQLVQSGAEVKKPGASVKVSCKASGYSFTTYTIHWVRQAPGQGLEWIGYINPSSGYAAYNQKFQGRVTLTADKSTSTAYMELSSLRSEDTAVYYCAREKFYGYDYWGQGTTVTVSS
In the case of B5, the Kd in the experiment with FLAG tag antigen [4] stood at 22 nM.

The record behind these values is US20260285997 (published 2026).
